What follows are binders tested against T1, VEGF-165 (human, UniProt P15692-4 27-191) (assay: supernatant VEGFR2 RBA (ELISA); + = more than 50% reduction of VEGF binding to VEGF R2/Fc; dAb assayed at 50 nM).
T1 construct: also called vascular endothelial growth factor
T1 sequence (P15692 other isoform, or with tags, fused parts or gaps limits assumed): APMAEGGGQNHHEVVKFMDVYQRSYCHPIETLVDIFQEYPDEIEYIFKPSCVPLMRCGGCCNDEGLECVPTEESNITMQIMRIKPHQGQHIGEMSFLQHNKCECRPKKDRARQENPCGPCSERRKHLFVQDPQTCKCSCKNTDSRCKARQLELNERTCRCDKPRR

binding result | Binder
binds | TAR15-30 (other, Human dAb, VH single variable domain) VH: EVQLLESGGGLVQPGGSLRLSCAASGFTFSDYAMYWVRQAPGKGLEWVSSITARGFITYYADSVKGRFTISRDNSKNTLYLQMNSLRAEDTAVYYCAKSGFPHKSGSNYFDYWGQGTLVTVSS
binds | TAR15-24 (other, Human dAb, VH single variable domain) VH: EVQLLESGGGLVQPGGSLRLSCAASGFTFTGYEMGWVRQAPGKGLEWVSYISRGGRWTYYADSVKGRFTISRDNSKNTLYLQMNSLRAEDTAVYYCAKSDTMFDYWGQGTLVTVSS
binds | TAR15-25 (other, Human dAb, VH single variable domain) VH: EVQLLESGGGLVQPGGSLRLSCAASGFTFSAYEMGWVRQAPGKGLEWVSFISGGGRWTYYADSVKGRFTISRDNSKNTLYLQMNSLRAEDTAVYYCAKYSEDFDYWGQGTLVTVSS
binds | TAR15-29 (other, Human dAb, VH single variable domain) VH: EVQLLESGGGLVQPGGSLRLSCAASGFTFGEYGMYWVRQAPGKGLEWVSSISERGRLTYYADSVKGRFTISRDNSKNTLYLQMNNLRAEDTAVYYCAKSALSSEGFSRSFDYWGQGTLVTVSS
binds | TAR15-8 (other, Human dAb, VH single variable domain) VH: EVQLLESGGGLVQPGGSLRLSCAASGFTFQWYPMWWVRQAPGKGLEWVSLIEGQGDRTYYADSVKGRFTISRDNSKNTLYLQMNSLRAEDTAVYYCAKAGDRTAGSRGNSFDYWGQGTLVTVSS
binds | TAR15-5 (other, Human dAb, VH single variable domain) VH: EVQLLESGGGLVQPGGSLRLSCAASGFTFRLYDMVWVRQAPGKGLEWVSYISSGGSGTYYADSVKGRFTISRDNSKNTLYLQMNSLRAEDTAVYYCAKAGGRASFDYWGQGTLVTVSS
binds | TAR15-7 (other, Human dAb, VH single variable domain) VH: EVQLLESGGGLVQPGGSLRLSCAASGFTFNKYPMMWVRQAPGKGLEWVSEISPSGQDTYYADSVKGRFTISRDNSKNTLYLQMNSLRAEDTAVYYCAKNPQILSNFDYWGQGTLVTVSS
binds | TAR15-23 (other, Human dAb, VH single variable domain) VH: EVQLLESGGGLVQPGGSLRLSCAASGFTFKAYEMGWVRQAPGKGLEWVSGISPNGGWTYYADSVKGRFTISRDNSKNTLYLQMNSLRAEDTAVYYCAKESISPTPLGFDYWGQGTLVTVSS
binds | TAR15-27 (other, Human dAb, VH single variable domain) VH: EVQLLESGGGLVQPGGSLRLSCAASGFTFQFYKMGWVRQAPGKGLEWVSSISSVGDATYYADSVKGRFTISRDNSKNTLYLQMNSLRAEDTAVYYCAKMGGGPPTYVVYFDYWGQGTLVTVSS
binds | TAR15-6 (other, Human dAb, VH single variable domain) VH: EVQLLESGGGLVQPGGSLRLSCAASGFTFHLYDMMWVRQAPGKGLEWVSFIGGDGLNTYYADSVKGRFTISRDNSKNTLYLQMNSLRAEDTAVYYCAKAGTQFDYWGQGTLVTVSS

Each binder was assayed against T1, VEGF-165 (assay: cell-based or functional assay).

VEGF (bioassay) ND50 | Binder
0.2 nM | IgG-like format No. 10 (DOM15-26 VH on CH / DOM16-52 VH on CK) (bispecific antibody, V domains shown, IgG-like format; also called IgG 10) V domain 1: EVQLLESGGGLVQPGGSLRLSCAASGFTFGAYPMMWVRQAPGKGLEWVSEISPSGSYTYYADSVKGRFTISRDNSKNTLYLQMNSLRAEDTAVYYCAKDPRKFDYWGQGTLVTVSS V domain 2: EVQLLESGGGLVQPGGSLRLSCAASGFTFAEQPMTWARQAPGKGLEWVSSISSFGDLTYYADSVKGRFTISRDNSKNTLYLQMNSLRAEDTAVYYCAKGVYRISRFDYWGQGTLVTVSS

Each binder was assayed against T1, VEGF-165 (assay: VEGF RBA (ELISA): inhibition of VEGF binding to VEGF receptor (R1 or R2 not specified); IgG-like format).

IC50 | Binder
0.05 nM | IgG-like format No. 10 (DOM15-26 VH on CH / DOM16-52 VH on CK) (bispecific antibody, V domains shown, IgG-like format; also called IgG 10) V domain 1: EVQLLESGGGLVQPGGSLRLSCAASGFTFGAYPMMWVRQAPGKGLEWVSEISPSGSYTYYADSVKGRFTISRDNSKNTLYLQMNSLRAEDTAVYYCAKDPRKFDYWGQGTLVTVSS V domain 2: EVQLLESGGGLVQPGGSLRLSCAASGFTFAEQPMTWARQAPGKGLEWVSSISSFGDLTYYADSVKGRFTISRDNSKNTLYLQMNSLRAEDTAVYYCAKGVYRISRFDYWGQGTLVTVSS
4.8 nM | IgG-like format No. 19 (DOM15-26 VH on CH / Dummy VK on CK) (antibody, V domains shown, not shown: a dimerising Fc or GST, IgG-like format; also called IgG 19) VH: EVQLLESGGGLVQPGGSLRLSCAASGFTFGAYPMMWVRQAPGKGLEWVSEISPSGSYTYYADSVKGRFTISRDNSKNTLYLQMNSLRAEDTAVYYCAKDPRKFDYWGQGTLVTVSS
